# According to the RNAGym collection of RNA variant scans (doi:10.1093/molbev/msab373):
# B1: Azoarcus group I ribozyme (parent)
# chain: GUGCCUUGCGCCGGGAAACCACGCAAGGGAUGGUGUCAAAUUCGGCGAAACCUAAGCGCCCGCCCGGGCGUAUGGCAACGCCGAGCCAAGCUUCGGCGCCUGCGCCGAUGAAGGUGUAGAGACUAGACGGCACCCACCUAAGGCAAACGCUAUGGUGAAGGCAUAGUCCAGGGAGUGGCGAAAGUCACACAAACCGG
# Variants of: B1
# Experiment: reverse-splicing fitness (ratio to wild type); higher = more active; in vitro selection; Mg2+ level not given
# Procedure, shortened: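 An in vitro group I ribozyme library with randomized positions was T7-transcribed and gel-purified. In triplicate, 10 pmol RNA in EPPS pH 7.5 was reacted with 50 pmoles of a 30-nt RNA substrate for 1 h at 37 °C across several added MgCl2 levels (1–48 mM), then stopped with EDTA. Products were reverse transcribed from a substrate-complementary primer, PCR-amplified and sequenced (HiSeq 4000). Fitness is a variant's read proportion after selection over that before, normalised to wild type.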
row,Variant,reverse-splicing fitness
1,GUGCCUUGCGCCGGGAAACCACGCAAGGGAUGGUGUCAAAUUCGGCGAAACCUAAGCGCCCGCCCGGGCGUAUGGCAACGCCGAGCCAAGCUUCGGCGCCUGCGCCGAUGCAGGUGUAGCGACUAGACGGCACCCACCUAAGGCGAACGAUAUGGUGAAGGCAUAGUCAAGGGAGGGGCGAAAGUCACACAAACCGG [A111C A120C A145G C150A C169A U176G],0.00677
2,GUGCCUUGCGCCGGGAAACCACGCAAGGGAUGGUGUCAAAUUCGGCGAAACCUAAGCGCCCGCCCGGGCGUAUGGCAACGCCGAGCCAAGCUUCGGCGCCUGCGCCGAUGCAGGUGUAGCGACUAGACGGCACCCACCUAAGGCGAACGAUAUGGUGAAGGCAUAGUCAAGGGAGAGGCGAAAGUCACACAAACCGG [A111C A120C A145G C150A C169A U176A],0.0145
3,GUGCCUUGCGCCGGGAAACCACGCAAGGGAUGGUGUCAAAUUCGGCGAAACCUAAGCGCCCGCCCGGGCGUAUGGCAACGCCGAGCCAAGCUUCGGCGCCUGCGCCGAUGCAGGUGUAGCGACUAGACGGCACCCACCUAAGGCGAACGAUAUGGUGAAGGCAUAGUCAAGGGAGCGGCGAAAGUCACACAAACCGG [A111C A120C A145G C150A C169A U176C],0.0214
4,GUGCCUUGCGCCGGGAAACCACGCAAGGGAUGGUGUCAAAUUCGGCGAAACCUAAGCGCCCGCCCGGGCGUAUGGCAACGCCGAGCCAAGCUUCGGCGCCUGCGCCGAUGCAGGUGUAGCGACUAGACGGCACCCACCUAAGGCCAACGCUAUGGUGAAGGCAUAGUCCAGGGAGAGGCGAAAGUCACACAAACCGG [A111C A120C A145C U176A],0.172
5,GUGCCUUGCGCCGGGAAACCACGCAAGGGAUGGUGUCAAAUUCGGCGAAACCUAAGCGCCCGCCCGGGCGUAUGGCAACGCCGAGCCAAGCUUCGGCGCCUGCGCCGAUGCAGGUGUAGCGACUAGACGGCACCCACCUAAGGCCAACGCUAUGGUGAAGGCAUAGUCCAGGGAGGGGCGAAAGUCACACAAACCGG [A111C A120C A145C U176G],0.0513
6,GUGCCUUGCGCCGGGAAACCACGCAAGGGAUGGUGUCAAAUUCGGCGAAACCUAAGCGCCCGCCCGGGCGUAUGGCAACGCCGAGCCAAGCUUCGGCGCCUGCGCCGAUGCAGGUGUAGCGACUAGACGGCACCCACCUAAGGCCAACGCUAUGGUGAAGGCAUAGUCCAGGGAGCGGCGAAAGUCACACAAACCGG [A111C A120C A145C U176C],0.197
7,GUGCCUUGCGCCGGGAAACCACGCAAGGGAUGGUGUCAAAUUCGGCGAAACCUAAGCGCCCGCCCGGGCGUAUGGCAACGCCGAGCCAAGCUUCGGCGCCUGCGCCGAUGCAGGUGUAGCGACUAGACGGCACCCACCUAAGGCCAACGCUAUGGUGAAGGCAUAGUCGAGGGAGGGGCGAAAGUCACACAAACCGG [A111C A120C A145C C169G U176G],0.00634
8,GUGCCUUGCGCCGGGAAACCACGCAAGGGAUGGUGUCAAAUUCGGCGAAACCUAAGCGCCCGCCCGGGCGUAUGGCAACGCCGAGCCAAGCUUCGGCGCCUGCGCCGAUGCAGGUGUAGCGACUAGACGGCACCCACCUAAGGCGAACGAUAUGGUGAAGGCAUAGUCAAGGGAGUGGCGAAAGUCACACAAACCGG [A111C A120C A145G C150A C169A],0.0101
9,GUGCCUUGCGCCGGGAAACCACGCAAGGGAUGGUGUCAAAUUCGGCGAAACCUAAGCGCCCGCCCGGGCGUAUGGCAACGCCGAGCCAAGCUUCGGCGCCUGCGCCGAUGCAGGUGUAGCGACUAGACGGCACCCACCUAAGGCGAACGAUAUGGUGAAGGCAUAGUCGAGGGAGUGGCGAAAGUCACACAAACCGG [A111C A120C A145G C150A C169G],0.00782
10,GUGCCUUGCGCCGGGAAACCACGCAAGGGAUGGUGUCAAAUUCGGCGAAACCUAAGCGCCCGCCCGGGCGUAUGGCAACGCCGAGCCAAGCUUCGGCGCCUGCGCCGAUGCAGGUGUAGCGACUAGACGGCACCCACCUAAGGCCAACGCUAUGGUGAAGGCAUAGUCUAGGGAGCGGCGAAAGUCACACAAACCGG [A111C A120C A145C C169U U176C],0.0413
11,GUGCCUUGCGCCGGGAAACCACGCAAGGGAUGGUGUCAAAUUCGGCGAAACCUAAGCGCCCGCCCGGGCGUAUGGCAACGCCGAGCCAAGCUUCGGCGCCUGCGCCGAUGCAGGUGUAGCGACUAGACGGCACCCACCUAAGGCCAACGCUAUGGUGAAGGCAUAGUCUAGGGAGGGGCGAAAGUCACACAAACCGG [A111C A120C A145C C169U U176G],0.006
12,GUGCCUUGCGCCGGGAAACCACGCAAGGGAUGGUGUCAAAUUCGGCGAAACCUAAGCGCCCGCCCGGGCGUAUGGCAACGCCGAGCCAAGCUUCGGCGCCUGCGCCGAUGCAGGUGUAGCGACUAGACGGCACCCACCUAAGGCCAACGCUAUGGUGAAGGCAUAGUCUAGGGAGAGGCGAAAGUCACACAAACCGG [A111C A120C A145C C169U U176A],0.0332
13,GUGCCUUGCGCCGGGAAACCACGCAAGGGAUGGUGUCAAAUUCGGCGAAACCUAAGCGCCCGCCCGGGCGUAUGGCAACGCCGAGCCAAGCUUCGGCGCCUGCGCCGAUGCAGGUGUAGCGACUAGACGGCACCCACCUAAGGCCAACGCUAUGGUGAAGGCAUAGUCUAGGGAGUGGCGAAAGUCACACAAACCGG [A111C A120C A145C C169U],0.17
14,GUGCCUUGCGCCGGGAAACCACGCAAGGGAUGGUGUCAAAUUCGGCGAAACCUAAGCGCCCGCCCGGGCGUAUGGCAACGCCGAGCCAAGCUUCGGCGCCUGCGCCGAUGCAGGUGUAGCGACUAGACGGCACCCACCUAAGGCGAACGCUAUGGUGAAGGCAUAGUCCAGGGAGUGGCGAAAGUCACACAAACCGG [A111C A120C A145G],0.614
15,GUGCCUUGCGCCGGGAAACCACGCAAGGGAUGGUGUCAAAUUCGGCGAAACCUAAGCGCCCGCCCGGGCGUAUGGCAACGCCGAGCCAAGCUUCGGCGCCUGCGCCGAUGCAGGUGUAGCGACUAGACGGCACCCACCUAAGGCGAACGAUAUGGUGAAGGCAUAGUCCAGGGAGUGGCGAAAGUCACACAAACCGG [A111C A120C A145G C150A],0.0979
